Source: publication PMC8383165

Target: GHSR with a TAG amber codon at F71^1.60 and a single reactive cysteine at position 255^6.27, doubly labelled (UniProt Q92847)
Chain of UniProt Q92847 (Q92847 1-70): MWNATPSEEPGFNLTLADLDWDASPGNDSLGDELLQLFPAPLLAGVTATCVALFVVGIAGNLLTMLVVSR

Row | proximity ratio change from the intramolecular FRET between fluorophores in TM1 and TM6 of GHSR, in lipid nanodiscs with D2R, 10 µM peptide | proximity ratio change from the intramolecular FRET between fluorophores in TM1 and TM6 of GHSR, in lipid nanodiscs with D2R | Substance
1 | 11.9 |  | LEAP2 (1–12) (peptide)
2 |  | 13.3 | LEAP2 (1–14) (peptide)
